In the supplement of paper PMC9732359:
± gives the uncertainty stated by the source.

assay: protein stability index of a GFP-peptide fusion (yeast GPS) (PSI 1-4); higher = more stable; sorted into four equal gates, so the index is relative within each strain; details: doa10∆
Outline: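 The protein stability index combines read frequencies across sorting gates, each weighted by its gate number and then summed. To obtain those frequencies, a pooled yeast library of GFP fusions to tiled 17-residue yeast protein peptides, on a plasmid also expressing Cherry, was grown to mid-log phase in leucine-free medium. The cells were sorted into four equal gates by GFP/Cherry ratio before plasmid amplification by PCR and Illumina sequencing.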

| Sequence | protein stability index |
| --- | --- |
| VKMLRDNPGYKASKEIK [SIR3] | 3.08 ± 0.17 |
| VKPLESSAKRSKNTAVS [SRP72] | 2.7 ± 0.073 |
| VKQEDMPFNDQGIVPDI [RET1] | 2.86 ± 0.084 |
| VKSLLSEEKIRDYSKEI [SIR4] | 3.14 ± 0.3 |
| VKTPKKTKYILQRPTAT [CSN12] | 2.89 ± 0.069 |
| VKVLAATNRVDVLDPAL [RPT5] | 3.08 ± 0.099 |
| VLAHRIGLVPLKVDPDM [RPC40] | 2.94 ± 0.27 |
| VLAKRMANLSQIYTQRA [SCL1] | 2.52 ± 0.12 |
| VLARISPELSLQRHLSL [RRP43] | 2.47 ± 0.054 |
| VLESIVARTFWASKYGQ [BRR2] | 2.74 ± 0.063 |
| VLHVSAKGKSGVQTAYI [RRP40] | 2.48 ± 0.23 |
| VLIANDVDPIELVVFLP [RPL8A] | 2.42 ± 0.24 |
| VLIAQERSAGNIVQVFK [RPB2] | 2.85 ± 0.13 |
| VLIKMVKMLRDNPGYKA [SIR3] | 3.34 ± 0.077 |
| VLITDHIEKLENEFVVL [CDC53] | 3.05 ± 0.061 |
| VLITSYEMVIREKNALK [ISW2] | 2.33 ± 0.043 |
| VLKFLTDLEKKHLWDQK [RPC17] | 3.14 ± 0.24 |
| VLLHGASLGIGLAAMGS [RPN2] | 1.82 ± 0.071 |
| VLMETKNTQSPQTPLVE [SNU114] | 2.95 ± 0.16 |
| VLMGKNTMVRRAIRGFL [RPP0] | 3.27 ± 0.26 |
| VLQNVFKLVSTPSSNSN [MED1] | 1.44 ± 0.04 |
| VLTYPEKVTRYNRHKLQ [RPO31] | 2.1 ± 0.055 |
| VMKDIYKVENVTLYWNN [ESC2] | 1.42 ± 0.088 |
| VMNKNQETAISVAKLFK [RPT6] | 2.24 ± 0.19 |
| VMSIESLVEVVFYRGMT [FAS1] | 1.89 ± 0.1 |

| Sequence | protein stability index |
| --- | --- |
| VNDRYQIPTPNNTVDPG [CSI1] | 1.44 ± 0.059 |
| VNETEAILYTKPGHVLQ [YGR119C/NUP57] | 3 ± 0.15 |
| VNGAKNLVVSGPPQSLY [FAS1] | 2.07 ± 0.1 |
| VNLPGGILRRKSESDEL [RRP4] | 3.31 ± 0.15 |
| VPRLFDLVKPKNPKFSN [SMC4] | 2.54 ± 0.052 |
| VPVALKGQGPFTLTYDI [YMR129W/POM152] | 2.58 ± 0.096 |
| VPVRSFKGHSHIVQDCT [ASC1] | 2.5 ± 0.073 |
| VQDALLTNQLYKNHELL [SNF2] | 3.19 ± 0.068 |
| VQGKNLLTNFHGMDFTT [RPS1A] | 3.42 ± 0.078 |
| VQKDTAIIRLHPSIYTQ [POP1] | 2.73 ± 0.29 |
| VQMDKIRKIVRKDENQF [AAR2] | 3.25 ± 0.17 |
| VREHYLRSDIPCLSRSC [DIS3] | 2.6 ± 0.051 |
| VRELVEKIDGMDVDSVK [RPC82] | 2.99 ± 0.19 |
| VRIDKALELDDTVVSRV [ECM29] | 2.92 ± 0.11 |
| VRIPPDQFHRDTISAIT [RPC25] | 1.91 ± 0.042 |
| VRNACKRLIAHDWLNAL [YCG1] | 2.74 ± 0.081 |
| VRQLYKGKKYQPKDLRA [RPL35A] | 3.28 ± 0.21 |
| VRSLLEVVQTGAKNIEI [PRE6] | 3.38 ± 0.14 |
| VRTNRFDIIEESFKGLQ [ECM29] | 2.6 ± 0.099 |
| VRYEEKRELKQLLEKAP [BRR2] | 1.86 ± 0.093 |
| VRYTTSVMPPNEVYSAY [DLS1] | 2.83 ± 0.062 |
| VSANTPKSLNSNININV [SWI1] | 3.14 ± 0.11 |
| VSDHLDAIYRELTKNPN [SMC1] | 2.87 ± 0.23 |
| VSIKDSTGCVVGLSQPD [YMR129W/POM152] | 2.09 ± 0.047 |
| VSIVKLDTQLITLLPSS [SNF12] | 1.73 ± 0.051 |

| Sequence | protein stability index |
| --- | --- |
| VSKFYDKINQLSVVKYL [RPN9] | 2.25 ± 0.12 |
| VSKMEKAEKTLKSTKHS [SMC4] | 2.69 ± 0.052 |
| VSLSQLLFIVGQVAIKT [YCS4] | 1.85 ± 0.062 |
| VSNPLIQRFFALHYLVP [COB] | 1.86 ± 0.054 |
| VSPTVGKLFSDIKVLKR [YIL149C/MLP2] | 2.96 ± 0.08 |
| VSTSSGAAANNNDQKRQ [YJL041W/NSP1] | 3.37 ± 0.084 |
| VTADTVILFDSDWNPQA [ISW2] | 3.08 ± 0.071 |
| VTAEDFKQAKERVMKNK [RPT2] | 3.69 ± 0.23 |
| VTALEVLSLGRPNLPTH [RGR1] | 2.93 ± 0.14 |
| VTIIEPKEEEPILAPSV [RPS3] | 3.09 ± 0.13 |
| VTIWYRAPELLLGARHY [SSN3] | 1.9 ± 0.1 |
| VTKITDMLLHKYYIVSS [SRB8] | 1.45 ± 0.076 |
| VTKWTNQLTESASHFEQ [YJL041W/NSP1] | 2.85 ± 0.13 |
| VTLASILTTAVGLVSPS [RPN1] | 1.98 ± 0.13 |
| VTLRKSLYTNTSRKALE [RPL3] | 2.66 ± 0.069 |
| VTNDDKSDDDDHTVDEI [SRB8] | 2.67 ± 0.077 |
| VTRFDEKQIEELLDNCI [SRB6] | 2.9 ± 0.21 |
| VTVFLFMLILALFVFYS [COB] | 2.32 ± 0.067 |
| VVARRSNSANVSSPESE [ITC1] | 3.19 ± 0.05 |
| VVDRESDIPKTTVQVAE [PRE4] | 2.6 ± 0.11 |
| VVEACGNIVAELAQDPQ [YCS4] | 2.75 ± 0.082 |
| VVKGRVEKTLLSDVAFY [RPO31] | 2.16 ± 0.22 |
| VVRRRFRGNISQPKIGY [RPL32] | 2.85 ± 0.096 |
| VVSCSQHGFEVQVGPMK [RPB7] | 3.09 ± 0.12 |
| VVVKNWGAETDELSMIM [RPS12] | 3.35 ± 0.14 |

| Sequence | protein stability index |
| --- | --- |
| VYANNPEVSDDGGLEEE [SIR3] | 2.97 ± 0.13 |
| VYGEGTSRVTGILLLDS [YJL039C/NUP192] | 3.19 ± 0.19 |
| VYKDNLSFIQVRIDLGT [RPO31] | 1.28 ± 0.071 |
| VYLSLLDKDSSQSSAAA [RPN6] | 3 ± 0.16 |
| VYLTAVLEYLAAEILEL [HTA1] | 2.47 ± 0.12 |
| VYSVDPLEKITDAYLDQ [PRP8] | 3.33 ± 0.17 |
| WALKSSLNSMTNAKLPN [RGR1] | 2.74 ± 0.092 |
| WDLQLQEKESQIQLAES [SMC4] | 3.05 ± 0.056 |
| WGVNLPAHTVIIKGTDV [BRR2] | 2.82 ± 0.086 |
| WIAMRREKRDRTHFKRM [PRP8] | 1.99 ± 0.079 |
| WKDFTVEIAFLFRAIYL [YCG1] | 2.36 ± 0.1 |
| WKLLNQLVLRGLLSQAI [YJR042W/NUP85] | 2.01 ± 0.18 |
| WKPNPSYDVENVNSRNQ [SRB5] | 2.96 ± 0.084 |
| WLEEYHPKLIKNKSGKI [FAS1] | 1.59 ± 0.12 |
| WLKNKFAEENITHKLTK [BRR2] | 3.13 ± 0.085 |
| WPTTHKYPLGHFVRDLG [DIS3] | 2.46 ± 0.063 |
| WREIIEKVRDYENSISK [IRR1] | 2.86 ± 0.076 |
| WRKWNVKVNHNEKRYAT [RPL4A] | 2.36 ± 0.24 |
| WRQFGNRMQISPDQMRN [GRR1] | 3.07 ± 0.12 |
| WVKKFKWAGIKTRKFVF [CYT1] | 1.14 ± 0.12 |
| WYQFSNSKDHKKITLQL [SIN4] | 3.35 ± 0.13 |
| YDDFIYLSDLKQFFQMT [PCI8] | 2.5 ± 0.075 |
